Test results from patent US20260132208A1 (DOMAIN THERAPEUTICS, published 2026).
Where “and” joins values, the source holds several entries; their conditions need not be identical. Identical values can stand only once.

Tests used:
[1] = molecular target: T1, human CCR8 (human, UniProt P51685 1-355); test: cell-based or functional assay
[2] = molecular target: T1, human CCR8; test: cell-based or functional assay; remark: listed apart in the source
[3] = molecular target: T2, human CCR8 with a SNAP-tag at the N-terminus (human, UniProt P51685 1-355, SNAP-tag labelled covalently with Lumi4-Terbium); test: HTRF Tag-lite, inhibition of hCCL1-AF647 binding to SNAP-hCCR8 on HEK-293 cells
T2 construct: also called hCCR8 SNAP-tag; CCR8 SNAP-tag
Protocol: The inhibition of CCL1 binding to hCCR8 was evaluated with the Tag-Lite® technology from Cisbio (Revvity). Human CCR8 is engineered with a SNAP-tag at the N-terminus of the GPCR. hCCR8 SNAP-tag is transiently transfected on HEK-293 cell line using FuGene® (Promega, Madison, WI, USA). 48 hours after transfection, cells are labeled with the substrate Lumi4-Terbium® (Cisbio, Codolet, France) which covalently reacts with the SNAP-tag, for 1 h at 37° C. Thawed or freshly labeled cells are plated in a 384 low volume white plate (GREINER Bio-One, Courtaboeuf, France) (10000 cells/well/10 μl). […] The Kd was previously obtained in a saturation binding assay on the same cells. […] The plate is next incubated at 21° C. for 2 h. Detection of HTRF signal is performed on the multiplate reader EnVision (PerkinElmer, Waltham, MA, USA). The HTRF (665/620) ratio is calculated by EnVision software, the data exported are considered as the total binding. The specific binding is calculated then by subtracting the non-specific signal from the total binding. The Ki and IC₅₀ are calculated using the “One site-Fit Ki” and “One site-FitlogIC50” from GraphPad Prism 9 (Graphpad Software, San Diego, CA, USA), respectively.

[4] = molecular target: T1, human CCR8; test: cell-based or functional assay; remark: listed apart in the source
[5] = molecular target: T3, pm3 (Y17 sulfated; Y15 and Y16 not sulfated); test: ELISA on coated peptide [cont.]
T3 construct: also called sulfated CCR8 N-terminal peptide pm3
In short: (§1)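 Wells were coated with CCR8-related peptides at 500 ng/ml in carbonate/bicarbonate buffer. Anti-CCR8 mAbs were tested from 1 μg/mL in 1/10 dilutions and bound for 90 min at room temperature. Detection used TMB for 15 min with an optical density read-out.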

[6] = molecular target: T4, pm2 (sulfated tyrosine(s) among Y15, Y16, Y17; which ones is not told (the underlining of Table 1 is lost in the text)); test: ELISA on coated peptide [cont.]
T4 construct: also called sulfated CCR8 N-terminal peptide pm2
In short: as §1

[7] = molecular target: T5, pm8 (Y15, Y16 and Y17 sulfated); test: ELISA on coated peptide [cont.]
T5 construct: also called sulfated CCR8 N-terminal peptide pm8
In short: as §1

[8] = molecular target: T6, pm4 (sulfated tyrosine(s) among Y15, Y16, Y17; which ones is not told (the underlining of Table 1 is lost in the text)); test: ELISA on coated peptide [cont.]
T6 construct: also called sulfated CCR8 N-terminal peptide pm4
In short: as §1

[9] = molecular target: T7, pm6 (Y16 and Y17 sulfated; Y15 not sulfated); test: ELISA on coated peptide [cont.]
T7 construct: also called sulfated CCR8 N-terminal peptide pm6
In short: as §1

[10] = molecular target: T8, pwt1 (none (unmodified peptide)); test: ELISA on coated peptide [cont.]
T8 construct: also called unmodified CCR8 N-terminal peptide
In short: as §1

[11] = molecular target: T9, pm5 (Y15 and Y17 sulfated; Y16 not sulfated); test: ELISA on coated peptide [cont.]
T9 construct: also called sulfated CCR8 N-terminal peptide pm5
In short: as §1

[12] = molecular target: T10, pm1 (sulfated tyrosine(s) among Y15, Y16, Y17; which ones is not told (the underlining of Table 1 is lost in the text)); test: ELISA on coated peptide [cont.]
T10 construct: also called sulfated CCR8 N-terminal peptide pm1
In short: as §1

[13] = molecular target: T2, human CCR8 with a SNAP-tag at the …; test: cell-based or functional assay
[14] = molecular target: T1, human CCR8; test: flow cytometry, HUT78 cells (endogenous CCR8)
Protocol: In human activated T cells model, prior to mAb incubation, cells were first incubated with 200 nM of hCCL1 (R&D Systems, Minneapolis, MN, USA) or buffer PBS (Invitrogen by Thermofisher Scientific, Illkirch-Graffenstaden, France) supplemented by 2% Fetal Bovine Serum (Invitrogen by Thermofisher Scientific, Illkirch-Graffenstaden, France) and 2 mM EDTA (Invitrogen by Thermofisher Scientific, Illkirch-Graffenstaden, France) during 1 hour at 4° C. To determine EC50 value, 8 concentrations of anti-CCR8 mAb were tested. Unbound antibodies were washed away with PBS (Invitrogen by Thermofisher Scientific, Illkirch-Graffenstaden, France) supplemented by 2% Fetal Bovine Serum (Invitrogen by Thermofisher Scientific, Illkirch-Graffenstaden, France) and 2 mM EDTA (Invitrogen by Thermofisher Scientific, Illkirch-Graffenstaden, France). Subsequently, cells are centrifuged (5 min at 400 g) and bound antibody is detected with F(ab′)2-Goat anti-Mouse IgG (H+L) Cross-Adsorbed Secondary Antibody, Alexa Fluor 488 (dilution 1/500) (Invitrogen by Thermofisher Scientific, Illkirch-Graffenstaden, France) or with F(ab′)₂-Goat anti-Human IgG Fc Secondary Antibody, PE (Invitrogen by Thermofisher Scientific, Illkirch-Graffenstaden, France) (dilution 1/1000) at 4° C. for 30 min. Detection reagent is washed away and cells are centrifuged (5 min at 400 g) and resuspended in 30 μL PBS. Bound detection antibody is quantified on a MacsQuant16 (Miltenyi, Gladbach, Germany) (B1 or B2 channel, 5000 events per acquisition). During the experiment, the respective isotype mAb controls (mouse IgG1, mouse IgG2a, mouse IgG2b, mouse IgG3 or human IgG1) (Biolegend, Amsterdam, The Netherlands) are included to exclude any unspecific binding events. EC50 values were determined via nonlinear fit “log (agonist) vs.response—Variable slope (four parameters)” function of Graphpad prism. EC50 values were not constantly determined in the same experiments.
Anti-CCR8 mAb cellular reactivity was also evaluated on native human CCR8 from HUT78 cell line by flow cytometry. In Table 4.3, Mean Fluorescence Intensity (Fold change to isotype control), the percentage of labelled cells and EC50 in nM of some anti-CCR8 antibodies are presented.

[15] = molecular target: T1, human CCR8; test: flow cytometry, hCCR8-transfected CHO-K1 cells
In short: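 Bound mAb was detected with Alexa Fluor 488 anti-mouse IgG or PE anti-human IgG Fc by flow cytometry, with isotype controls. EC50 came from a four-parameter fit.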

[16] = molecular target: T1, human CCR8; test: cell-based or functional assay; remark: listed apart in the source
[17] = molecular target: T1, human CCR8; test: flow cytometry, inhibition of hCCL1-AF647 (10 nM) binding to hCCR8-CHO cells
In short: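 hCCR8-transfected CHO cells preincubated 30 min at 4 °C with anti-CCR8 mAb (8 concentrations, top 10 μg/mL, 1/3 dilutions), washed, then exposed to labelled CCL1. Bound CCL1 quantified by flow cytometry; IC₅₀ of binding blockade from sigmoidal variable-slope fit.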

T4 sequence (peptide, as listed by the source): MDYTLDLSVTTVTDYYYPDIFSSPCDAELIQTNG
T10 sequence (peptide, as listed by the source): as above
T7 sequence (peptide, as listed by the source): as above
T3 sequence (peptide, as listed by the source): as above
T5 sequence (peptide, as listed by the source): as above
T9 sequence (peptide, as listed by the source): as above
T8 sequence (peptide, as listed by the source): as above
T6 sequence (peptide, as listed by the source): as above

residual hCCL1 (100 nM) Gi2 response, protocol #2, mAb 0.08 µg/mL [1] | residual hCCL1 (100 nM) Gi2 response, protocol #2, mAb 0.4 µg/mL [1] | residual hCCL1 (100 nM) Gi2 response, protocol #2, mAb 10 µg/mL [1] | residual hCCL1 (100 nM) Gi2 response, protocol #3, mAb 0.05 µg/mL [1] | residual hCCL1 (100 nM) Gi2 response, protocol #3, mAb 0.5 µg/mL [1] | residual hCCL1 (100 nM) Gi2 response, protocol #3, mAb 5 µg/mL [1] | IC50 of CCL1-induced hCCR8 Gi2 signaling (BRET, HEK-293) [2] | extrapolated top plateau of hCCL1 curve with 5 µg/mL mAb, protocol #3 [4] | binding result [5] | binding result [6] | binding result [7] | binding result [8] | binding result [9] | binding result [10] | binding result [11] | binding result [12] | % positive cells [15] | MFI fold change to isotype ctrl [15] | IC50 of CCL1-induced hCCR8 Gi2 signaling (BRET), pH 6.5 [16] | IC50 of CCL1-induced hCCR8 Gi2 signaling (BRET), pH 7.4 [16] | Binder | also measured
77% | 66% | 41% | 73% | 52% | 37% | 0.034 µg/mL and 0.224 nM | 366000 % of hCCL1 (100 nM) | binds | binds | binds | binds | binds | binds | binds | binds | – | – | – | – | anti-CCR8 mAb 1-24 (antibody, human IgG1, kappa, V domains shown, Humanized mAb, human IgG1 / kappa) VH: QVQLQQSGPEVVKPGASVKVSCKTSGYTFTEYTIHWVRQSHGQSLEWVGGINPNNGNTRYDQKFKGRVTITIDKSSSTAYMELRSLTSEDTAVYYCARVARSSGSGPYAMDYWGQGTTVTVSS VL: DVVMTQSPLSLPVTLGDQASISCRCSQSLLHTNGDTYLHWYLQRPGQSPRLLIYKVSNRFSGVPDRFSGSGSGTDFTLKISRVEAEDVGVYFCSQSTHVPYTFGGGTKVEIKR | IC50 [3]: 0.04 µg/mL; Ki [3]: 0.02 µg/mL; % hCCR8 internalization with CCL1 300 nM, mAb 1 µg/ml (HTRF) [13]: 44%; % hCCR8 internalization with CCL1 300 nM, mAb 10 µg/ml (HTRF) [13]: 36%; % of labelled cells [14]: 88%; EC50 [14]: 0.2 nM
101% | 93% | 100% | 92% | 81% | 73% | 0.069 µg/mL and 0.462 nM | 663 % of hCCL1 (100 nM) | binds | binds | binds | binds | binds | binds | binds | binds | 85.7% | 9.8 fold | 0.051 µg/ml and 0.34 nM | 0.059 µg/ml and 0.396 nM | anti-CCR8 mAb 1-3 (antibody, V domains shown, Murine hybridoma mAb) VH: KVQLQQSGPELVKPGASVKISCKTSGYTFTEYTIHWVQQIHGKSPEWIGGINPNGDTRYDQKFKGKATLTIDKSSSTAYMELRSLTSEDSAVYYCARVARFYGISPYAMDYWGQGTSVTVSS VL: DVVMTQTPLSLPVSLGDQASISCRCTQSLLHSNGDTYLHWYLQKPGQSPNLLIYKVSNRFSGVPDRFSGSGSGTDFTLKINRVEAEDLGVYFCSQSTHVPYTFGGGTNLEIK | IC50 [17]: 1.29 µg/mL and 8.62 nM
79% | 38% | 17% | 102% | 64% | 47% | 0.049 µg/mL and 0.328 nM | 667000 % of hCCL1 (100 nM) | binds | binds | binds | binds | binds | binds | binds | binds | 81.1% | 10.7 fold | 0.044 µg/ml and 0.292 nM | 0.061 µg/ml and 0.405 nM | anti-CCR8 mAb 1-6 (antibody, V domains shown, Murine hybridoma mAb) VH: EVQLQQSGPELLKPGTSVKISCTTSGYTFSDYTLHWVKQSHGKSLEWIGGITPKNGDTRYDPRFKDKATLTIDKSSSAAYMELRSLTSEDSAVYYCARVARFYGVSPYAMDYWGQGASVTVSS VL: DVVMTQTPLSLPVSLGDQASISCRCTQSLLHSNGDTYLHWYLQKPGQSPKLLIYKVSNRFSGVPDRFSGSGSGTDFTLEITRVEAEDLGVYFCSQTTHVPYTFGGGTKLEIK | IC50 [17]: 1.3 µg/mL and 8.71 nM
